The target in this assay is NNN-GFPglyc (GnTI CTS region fused to the glycosylation reporter GFPglyc) (Nicotiana tabacum (legend of Figure 1 and methods); the running text says N. benthamiana). As to the kind of experiment: FRET or BRET; two-photon FRET-FLIM in living N. benthamiana leaf epidermal cells, Golgi bodies, leaves treated with 25 uM latrunculin B; donor NNN-GFPglyc, acceptor CTS-mRFP; a decrease of the donor lifetime by 0.20 ns or 8% taken as interaction.

“NNN-mRFP (GnTI CTS region fused to mRFP) (domain or fragment)” registered an FRET efficiency E of 14.6%, a donor lifetime with acceptor (tau DA) of 2.08 ns and a lifetime contrast (delta tau) of 0.36 ns.
For “RNN-mRFP (chimeric CTS region: ST cytoplasmic tail, GnTI transmembrane domain and stem, fused to mRFP) (from UniProt P13721 1-9)”, in that order: 10.8%, 2.18 ns and 0.26 ns.

The values above are taken from paper PMC4282539.
